From US20110118131A1 (published 2011) come the findings set out here.

Numbering of substitutions follows the chain as printed. Names may count otherwise.

B1: XPA23 Fab, heavy chain G103W (Fab, V domains shown)
VH: EVQLLESGGGLVQPGGSLRLSCAASGFTFSKYFMFWVRQAPGKGLEWVSVISPSGGMTRYADSVKGRFTISRDNSKNTLYLQMNSLRAEDTAVYYCARVGYGWNSDYWGQGTLVTVSS
VL: DIQMTQSPSSVSASVGDRLTIICRASQDINRWLAWYQQTPGNAPKLLIHSATSLQSGVPSRFSGSGSGTDFTLTINSLQPEDFATYYCQQADSFPLTFGGGTKVEIK
B2: XPA23 Fab, heavy chain N104W (Fab, V domains shown)
VH: B1 VH with W103G, N104W
VL: B1 VL
B3: XPA23 Fab, heavy chain M57R (Fab, V domains shown)
VH: B1 VH with M57R, W103G
VL: B1 VL
B4: XPA23 Fab, heavy chain K31Q (Fab, V domains shown)
VH: B1 VH with K31Q, W103G
VL: B1 VL
B5: XPA23 Fab, heavy chain I51F (Fab, V domains shown)
VH: B1 VH with I51F, W103G
VL: B1 VL
B6: XPA23 Fab, heavy chain I51Q (Fab, V domains shown)
VH: B1 VH with I51Q, W103G
VL: B1 VL
B7: XPA23 Fab, heavy chain I51W (Fab, V domains shown)
VH: B1 VH with I51W, W103G
VL: B1 VL
B8: XPA23 Fab, heavy chain N104E (Fab, V domains shown)
VH: B1 VH with W103G, N104E
VL: B1 VL
B9: XPA23 Fab, heavy chain K31H (Fab, V domains shown)
VH: B1 VH with K31H, W103G
VL: B1 VL
B10: XPA23 Fab, heavy chain M57H (Fab, V domains shown)
VH: B1 VH with M57H, W103G
VL: B1 VL
B11: XPA23 Fab, heavy chain M57Y (Fab, V domains shown)
VH: B1 VH with M57Y, W103G
VL: B1 VL
B12: XPA23 Fab, heavy chain I51D (Fab, V domains shown)
VH: B1 VH with I51D, W103G
VL: B1 VL
B13: XPA23 Fab, heavy chain I51R (Fab, V domains shown)
VH: B1 VH with I51R, W103G
VL: B1 VL
B14: XPA23 Fab, heavy chain K31D (Fab, V domains shown)
VH: B1 VH with K31D, W103G
VL: B1 VL
B15: XPA23 Fab, heavy chain N104S (Fab, V domains shown)
VH: B1 VH with W103G, N104S
VL: B1 VL
B16: XPA23 Fab, heavy chain K31W (Fab, V domains shown)
VH: B1 VH with K31W, W103G
VL: B1 VL
B17: XPA23 Fab, heavy chain K31S (Fab, V domains shown)
VH: B1 VH with K31S, W103G
VL: B1 VL
B18: XPA23 Fab, heavy chain N104R (Fab, V domains shown)
VH: B1 VH with W103G, N104R
VL: B1 VL
B19: XPA23 Fab, heavy chain M57K (Fab, V domains shown)
VH: B1 VH with M57K, W103G
VL: B1 VL
B20: XPA23 Fab, heavy chain M57S (Fab, V domains shown)
VH: B1 VH with M57S, W103G
VL: B1 VL
B21: XPA23 Fab, heavy chain I51N (Fab, V domains shown)
VH: B1 VH with I51N, W103G
VL: B1 VL
B22: XPA23 Fab, heavy chain I51K (Fab, V domains shown)
VH: B1 VH with I51K, W103G
VL: B1 VL
B23: XPA23 Fab, heavy chain M57D (Fab, V domains shown)
VH: B1 VH with M57D, W103G
VL: B1 VL
B24: XPA23 Fab, heavy chain N104D (Fab, V domains shown)
VH: B1 VH with W103G, N104D
VL: B1 VL
B25: XPA23 Fab, heavy chain N104Y (Fab, V domains shown)
VH: B1 VH with W103G, N104Y
VL: B1 VL
B26: XPA23 Fab, heavy chain M57E (Fab, V domains shown)
VH: B1 VH with M57E, W103G
VL: B1 VL
B27: XPA23 Fab, heavy chain K31E (Fab, V domains shown)
VH: B1 VH with K31E, W103G
VL: B1 VL
B28: XPA23 Fab, heavy chain M57N (Fab, V domains shown)
VH: B1 VH with M57N, W103G
VL: B1 VL
B29: XPA23 Fab, heavy chain I51H (Fab, V domains shown)
VH: B1 VH with I51H, W103G
VL: B1 VL
B30: XPA23 Fab, heavy chain N104H (Fab, V domains shown)
VH: B1 VH with W103G, N104H
VL: B1 VL
B31: XPA23 Fab, heavy chain I51S (Fab, V domains shown)
VH: B1 VH with I51S, W103G
VL: B1 VL
B32: XPA23 Fab, heavy chain K31F (Fab, V domains shown)
VH: B1 VH with K31F, W103G
VL: B1 VL
B33: XPA23 Fab, heavy chain N104F (Fab, V domains shown)
VH: B1 VH with W103G, N104F
VL: B1 VL
B34: XPA23 Fab, heavy chain M57Q (Fab, V domains shown)
VH: B1 VH with M57Q, W103G
VL: B1 VL
B35: XPA23 Fab, heavy chain N104K (Fab, V domains shown)
VH: B1 VH with W103G, N104K
VL: B1 VL
B36: XPA23 Fab, heavy chain K31Y (Fab, V domains shown)
VH: B1 VH with K31Y, W103G
VL: B1 VL
B37: XPA23 Fab, heavy chain P53D (Fab, V domains shown)
VH: B1 VH with P53D, W103G
VL: B1 VL
B38: XPA23 Fab, heavy chain K31R (Fab, V domains shown)
VH: B1 VH with K31R, W103G
VL: B1 VL
B39: XPA23 Fab, heavy chain M57F (Fab, V domains shown)
VH: B1 VH with M57F, W103G
VL: B1 VL
B40: XPA23 Fab, heavy chain I51E (Fab, V domains shown)
VH: B1 VH with I51E, W103G
VL: B1 VL
B41: XPA23 Fab, heavy chain N104Q (Fab, V domains shown)
VH: B1 VH with W103G, N104Q
VL: B1 VL
B42: XPA23 Fab, heavy chain I51Y (Fab, V domains shown)
VH: B1 VH with I51Y, W103G
VL: B1 VL
B43: XPA23 Fab, heavy chain K31N (Fab, V domains shown)
VH: B1 VH with K31N, W103G
VL: B1 VL

This experiment has as its target T1, IL-1beta (UniProt P01584 117-269).
T1 construct: also called IL-1β
Put plainly: Biacore.
For the molecule B1, the binding result is recorded as “no binding”. Take B2: the binding result is “no binding”. In the case of B3, the “fold difference in affinity vs parental” value amounted to 0.06 fold. As to B4, the binding result is listed as “no binding”. As for B5, the “fold difference in affinity vs parental” value was 0.9 fold.

Regarding B6, the “fold difference in affinity vs parental” value was 0.83 fold. In the case of B7, the binding result is “no binding”. Take B8: the binding result is reported as “no binding”. Consider B9, for which the “fold difference in affinity vs parental” value turned out to be 1.11 fold. B10: the “fold difference in affinity vs parental” value was determined as 0.08 fold. Take B11: the “fold difference in affinity vs parental” value was determined as 0.86 fold.

B12: the “fold difference in affinity vs parental” value was determined as 0.07 fold. With B13, the “fold difference in affinity vs parental” value was 0.1 fold. On the same count and under the same terms, next, B14: 0.04 fold; B15: 1.02 fold; B16: 0.84 fold. B17: the binding result is “no binding”. Same read-out and setting: next, B18: “no binding”.

In the case of B19, the “fold difference in affinity vs parental” value is 0.04 fold. As for B20, the “fold difference in affinity vs parental” value was 0.04 fold. With B21, the “fold difference in affinity vs parental” value came to 0.68 fold. On the same count and under the same terms, the value for B22 was 0.11 fold. For B23, the binding result is listed as “no binding”. Consider B24, for which the binding result was “no binding”. B25: the binding result is given as “no binding”. For the molecule B26, the binding result is “no binding”. The same measure, in the same setting: next, B27: “no binding”. Regarding B28, the “fold difference in affinity vs parental” value came out at 0.03 fold. Regarding B29, the “fold difference in affinity vs parental” value is 0.08 fold. Same read-out and setting: next, B30: 0.07 fold; B31: 0.69 fold; B32: 0.05 fold. Consider B33, for which the binding result was “no binding”. Consider B34, for which the “fold difference in affinity vs parental” value was 0.02 fold.

For the molecule B35, the binding result is “no binding”. Take B36: the “fold difference in affinity vs parental” value was 0.04 fold. As for B37, the binding result is listed as “no binding”. With B38, the “fold difference in affinity vs parental” value was 0.9 fold.

As to B39, the “fold difference in affinity vs parental” value is 1.03 fold. For B40, the “fold difference in affinity vs parental” value is 0.73 fold. B41: the “fold difference in affinity vs parental” value is 0.03 fold.

As to B42, the “fold difference in affinity vs parental” value is 1.75 fold. As for B43, the binding result is recorded as “no binding”.
